Laboratory results taken from PMC10443397.

Biological target: triple-phosphorylated Schizosaccharomyces pombe Dss1, fluorescein-labelled on the C-terminal cysteine (S. pombe) (UniProt O14140)
Experiment: MST

Kd: 1300 nM
B1: FHA domain of Schizosaccharomyces pombe Dma1 (residues 25-160) (domain or fragment)
chain: DKISIRLTNFVGPNAHSFSFDPLVRYWNRKQNNLPIYIGRYTERYNGGDVSAIVFRSKVVSRRHAQIFYENNTWYIQDMGSSSGTFLNHVRLSPPSKTSKPYPISNNDILQLGADYRGGHEVNYRCVRARVELNNS
